T1: hsGLUT4 G414A (human, UniProt P14672 1-509)
T1 sequence: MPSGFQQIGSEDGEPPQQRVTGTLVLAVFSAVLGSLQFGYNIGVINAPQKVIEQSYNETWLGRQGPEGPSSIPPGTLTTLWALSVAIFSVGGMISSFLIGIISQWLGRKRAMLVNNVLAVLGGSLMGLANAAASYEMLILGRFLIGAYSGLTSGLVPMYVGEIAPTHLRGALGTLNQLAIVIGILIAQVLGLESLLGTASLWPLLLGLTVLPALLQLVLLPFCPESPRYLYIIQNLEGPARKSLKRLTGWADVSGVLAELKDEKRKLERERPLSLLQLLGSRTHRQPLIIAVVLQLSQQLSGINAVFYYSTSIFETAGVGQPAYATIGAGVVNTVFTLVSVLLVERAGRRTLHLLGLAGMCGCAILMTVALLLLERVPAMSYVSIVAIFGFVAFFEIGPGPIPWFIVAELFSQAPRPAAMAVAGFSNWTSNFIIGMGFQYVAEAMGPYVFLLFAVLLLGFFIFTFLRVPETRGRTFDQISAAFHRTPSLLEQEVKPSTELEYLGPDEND

T2: hsGLUT4 M112A (human, UniProt P14672 1-509)
T2 sequence: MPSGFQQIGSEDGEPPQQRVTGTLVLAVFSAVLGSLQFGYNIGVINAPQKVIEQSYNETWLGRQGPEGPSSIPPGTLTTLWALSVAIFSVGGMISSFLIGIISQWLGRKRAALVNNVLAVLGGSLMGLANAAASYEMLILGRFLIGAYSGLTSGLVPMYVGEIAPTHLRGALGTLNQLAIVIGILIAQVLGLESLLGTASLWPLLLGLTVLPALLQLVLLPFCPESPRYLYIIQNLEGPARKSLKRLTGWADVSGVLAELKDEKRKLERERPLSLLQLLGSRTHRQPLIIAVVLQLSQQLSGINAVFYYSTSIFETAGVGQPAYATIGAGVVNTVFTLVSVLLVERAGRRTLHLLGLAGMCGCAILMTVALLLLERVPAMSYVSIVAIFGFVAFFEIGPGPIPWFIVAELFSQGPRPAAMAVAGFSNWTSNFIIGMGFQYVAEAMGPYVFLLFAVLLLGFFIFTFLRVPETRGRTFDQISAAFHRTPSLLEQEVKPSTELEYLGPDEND

T3: hsGLUT4 I313A (human, UniProt P14672 1-509)
T3 sequence: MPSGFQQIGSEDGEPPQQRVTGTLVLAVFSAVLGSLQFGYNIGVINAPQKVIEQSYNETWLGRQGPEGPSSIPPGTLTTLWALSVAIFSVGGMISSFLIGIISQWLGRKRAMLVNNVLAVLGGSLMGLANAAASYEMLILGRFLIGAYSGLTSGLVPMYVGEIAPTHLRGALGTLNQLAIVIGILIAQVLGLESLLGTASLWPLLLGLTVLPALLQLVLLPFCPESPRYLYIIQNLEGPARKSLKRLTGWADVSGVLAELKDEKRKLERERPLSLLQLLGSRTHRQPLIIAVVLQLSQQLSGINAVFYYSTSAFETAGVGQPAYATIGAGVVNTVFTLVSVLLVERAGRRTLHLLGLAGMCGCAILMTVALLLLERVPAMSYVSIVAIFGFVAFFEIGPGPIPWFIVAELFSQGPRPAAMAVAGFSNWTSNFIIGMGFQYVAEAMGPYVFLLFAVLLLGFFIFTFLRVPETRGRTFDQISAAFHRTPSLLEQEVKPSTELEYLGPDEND

T4: hsGLUT4 V306A (human, UniProt P14672 1-509)
T4 sequence: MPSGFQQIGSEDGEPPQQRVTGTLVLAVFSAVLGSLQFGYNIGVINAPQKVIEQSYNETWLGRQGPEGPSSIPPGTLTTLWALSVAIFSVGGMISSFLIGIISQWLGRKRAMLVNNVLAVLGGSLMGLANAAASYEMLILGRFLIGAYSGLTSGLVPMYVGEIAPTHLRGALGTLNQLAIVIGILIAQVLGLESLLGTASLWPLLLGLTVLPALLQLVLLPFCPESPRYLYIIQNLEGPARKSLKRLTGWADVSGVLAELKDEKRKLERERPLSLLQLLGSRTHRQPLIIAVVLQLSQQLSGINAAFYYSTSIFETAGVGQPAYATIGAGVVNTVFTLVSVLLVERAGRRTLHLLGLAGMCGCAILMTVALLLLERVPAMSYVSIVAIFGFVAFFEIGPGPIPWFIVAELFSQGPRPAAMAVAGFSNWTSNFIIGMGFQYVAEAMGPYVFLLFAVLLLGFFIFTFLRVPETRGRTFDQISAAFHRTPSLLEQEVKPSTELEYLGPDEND


What was measured:
Experiment in all cases: flow cytometry, alanine-scan library in HEK-293T
hsGLUT4 G414A = target: T1, hsGLUT4 G414A
Experimental: (§1) Because of the state-dependence of the isolated MAbs, we next wished to understand the mechanism by which each MAb could recognize GLUT4 in its different conformations. The residues required for binding of each MAb were determined using shotgun mutagenesis comprehensive alanine scanning (Davidson E & Doranz B J (2014) A High-Throughput Shotgun Mutagenesis Approach to Mapping B-cell Antibody Epitopes. Immunology, which is hereby incorporated by reference in its entirety). All residues of hsGLUT4 were individually mutated to alanine, with existing alanines changed to serines. Mutations were obtained for 508 of the 509 residues of GLUT4 (excluding the initiating methionine). The entire mutation library was transfected into human HEK-293T cells in a 384-well array format (one clone per well) and assessed for immunoreactivity using high-throughput flow cytometry.
(§2) HEK-293T cells were transfected by CaPO₄ with plasmids in 6-well culture plates (Falcon) at 750,000 cells/well. At 48 hours post transfection, cells were stained with anti-V5 and anti-GLUT4 MAbs (purified scFv, 2 μg/ml) followed by biotinylated goat anti-mouse or human antibody (1:500) and streptavidin-PerCP (1:500). Fluorescence was detected using an Intellicyt high-throughput flow cytometer (HTFC; Intellicyt, Albuquerque, N. Mex.). For cell permeabilization, cells were treated with saponin at 0.1% in PBS for 20 minutes. To discriminate intact (live) and permeabilized (dead) cells without the use of detergent, propidium iodide (PI) was added to HEK-293T cells at 1 ug/ml just prior to flow cytometry. Where indicated, cytochalasin B (Sigma) was used at a final concentration of 10 uM and phloretin (Sigma) was used at a final concentration of 100 uM, each added in 10% NGS for 30 minutes prior to antibody staining as well as included with the primary antibody.

hsGLUT4 M112A = target: T2, hsGLUT4 M112A
Experimental: as §1, §2

hsGLUT4 I313A = target: T3, hsGLUT4 I313A
Experimental: as §1, §2

hsGLUT4 V306A = target: T4, hsGLUT4 V306A
Experimental: as §1, §2

Row | Molecule | % of binding to wild type GLUT4 (hsGLUT4 G414A) [%] | % of binding to wild type GLUT4 (hsGLUT4 M112A) [%] | % of binding to wild type GLUT4 (hsGLUT4 I313A) [%] | % of binding to wild type GLUT4 (hsGLUT4 V306A) [%]
1 | 1F8 (antibody) | 78 | 120 | 85 | 74
2 | AB108 (Fc fusion, Bivalent scFv-Fc; also called MAb AB108; not shown: Fc fragment of human IgG1, cloned in frame with the scFv) scFv: ALTQPSSVSANLGGTVKITCSGSSGSYGWYQQKAPGSAPVTLIYRNDKRPSDIPSRFSGSESGSTGTLTITGVQAEDEAVYFCGGYDSSAGYAAFGAGTTLTVLGQSSRSSGGGGSSGGGGSAVTLDESGGGLQTPGGALSLVCKASGFTFSSHGMGWVRQAPGKGLEWVGSISTGRYTFYAPAVKGRATISRDNGQSTLRLQLNNLRAEDTGTYYCTKCAGLNGCGGGEIDAWGHGTEVIVSS | 80 | 57 | 39 | 83
3 | AB101 (scFv, Chicken-derived clone used as a control; the four lead clones were tested as scFv-human IgG1 Fc; also called MAb AB101) scFv: ALTQPSSVSANPGETVKITCSGSSNSYGWYQQKSPGSAPVTVIYYNDKRPSDIPSRFSGSKSDSTHTLTITGVRAEDEAVYFCGSYDSTYVGIFGAGTTLTVLGQSSRSSGGGGSSGGGGSAVTLDESGGGLQTPGGTLSLVCKASGFTFSSNAMGWVRQAPGKGLEWVAGISSDGRYTKYGSAVKGRATISRDNGQSTVRLQLNNLRAEDTGTYFCAKAFGNNYRRIYAGQIDAWGHGTEVIVSS | 83 | 103 | 94 | 91
4 | AB111 (Fc fusion, Bivalent scFv-Fc; also called MAb AB111; not shown: Fc fragment of human IgG1, cloned in frame with the scFv) scFv: ALTQPSSVSANPGETVKITCSGSGSWYGWFQQKSPGSAPVTVIYSNDKRPSDIPSRFSGSKSGSTSTLTITGVQVEDEAVYYCGNWDIFGAGTTLTVLGQSSRSSGGGGSSGGGGSAVTLDESGGGLQTPGGALSLVCKASGFTFSSHGMGWVRQAPGKGLEWVASISTGRYTFYAPAVKGRATISRDNGQSTVRLQLNNLRAEDTATYYCTKCAGLNGCGGGEIDAWGHGTEVIVSS | 109 | 79 | 106 | 171

From patent publication US20210238276A1 (INTEGRAL MOLECULAR, published 2021)
